According to the supplement of paper PMC9170038:

What was measured:
MS2 coat protein [1] = test: apparent KD of MS2 coat protein; designed switch direction (-1 OFF switch, 1 ON switch): 1; higher = weaker reporter binding
Outline: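 For each design, the apparent KD is the median over clusters of curves fitted to normalised cluster fluorescence. Clusters held RNA switches with common flanks, transcribed on Illumina chips by stalled E. coli RNA polymerase. These were titrated with SNAP-549-labelled MS2 coat protein, doubling from 0.7 or 1.5 nM to 3 µM, without input, with 200 uM small-molecule ligand, or with an oligonucleotide input.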

MS2 coat protein [2] = test: apparent KD of MS2 coat protein; higher = weaker reporter binding; conditions: Eterna round: R107
Outline: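 The designed RNA switches were transcribed on-chip from Illumina sequencing clusters. In 100 mM Tris-HCl pH 7.5, 80 mM KCl and 4 mM MgCl2, without or with constant ligand, they were titrated with SNAP-549-labelled MS2 coat protein from 0.7 or 1.5 nM to 3 µM in twofold steps. Apparent KD is the per-design median of normalised cluster binding-curve fits.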

[3] = Eterna round: R95, input ligand: FMN 200 uM
[4] = Eterna round: R95, input ligand: microRNA oligo, concentration not stated
[5] = Eterna round: R95, input ligand: none
[6] = input ligand: microRNA oligo, concentration not stated
[7] = input ligand: theophylline 20 uM
[8] = input ligand: theophylline 2 mM
[9] = input ligand: tryptophan 2.4 mM

| Sequence | apparent KD of MS2 coat protein (MS2 coat protein [1]; input ligand: FMN 200 uM) | apparent KD of MS2 coat protein (MS2 coat protein [1]; [6]) | apparent KD of MS2 coat protein (MS2 coat protein [1]; input ligand: none) | apparent KD of MS2 coat protein (MS2 coat protein [2]; input ligand: arginine 13.2 mM) | apparent KD of MS2 coat protein (MS2 coat protein [2]; input ligand: none) | apparent KD of MS2 coat protein (MS2 coat protein [2]; [7]) | apparent KD of MS2 coat protein (MS2 coat protein [2]; [8]) | apparent KD of MS2 coat protein (MS2 coat protein [2]; [9]) | further results |
| --- | --- | --- | --- | --- | --- | --- | --- | --- | --- |
| GGCACAAAAGCACAGGAUAUGCAAAAGAACACAUGAGGAUCACCCAUGUAGCCUAAUAAAGGGCAGCAGAAGGGUGGGACUGCCA [Quaat] (puzzle: Same State 2) | – | – | – | – | – | – | – | – | apparent KD of MS2 coat protein (MS2 coat protein [1]; [3]): 74.5 nM; apparent KD of MS2 coat protein (MS2 coat protein [1]; [4]): 239 nM; apparent KD of MS2 coat protein (MS2 coat protein [1]; [5]): 239 nM |
| UCUUGGUUUUUGCUCGUUUUUUGUGUUGAACAUGAGGAUCACCCAUGUAUUGUACGGUCCAGUUUAGUGGUAAUCCG [JMF 69] (puzzle: Sensor for hsa-mir-208a) | – | – | – | – | – | – | – | – | apparent KD of MS2 coat protein (MS2 coat protein [1]; [3]): 33.9 nM; apparent KD of MS2 coat protein (MS2 coat protein [1]; [4]): 20.6 nM; apparent KD of MS2 coat protein (MS2 coat protein [1]; [5]): 36.8 nM |
| UGGCUCAGAGCAGGAUAUACGUGGUCACAUGAGGAUCACCCAUGUCUCGAGCUUCGGCUCGAGGCGUAGAAGGGCUCUGAGCCA [SSNG2/6-B2] (Eterna round: R96, puzzle: Same State NG 2) | 110 nM | 187 nM | 305 nM | – | – | – | – | – | – |
| UUGAAGAAUUAAGGAUAUCGAGUCGUCAAAUUAAACAUGAGGAUCACCCAUGUGGGUUGCGGUAUCGAGAAGGUAAAUUACUAG [JL JR Sub099 mod 4] (Eterna round: R96, puzzle: Same State NG 2) | 11.9 nM | 15.2 nM | 32.3 nM | – | – | – | – | – | – |
| AUUACGAGCGUAGGAUAUGGGAAAGGAAGUGUACCAGAAGGACGAAUACAGCGUCCGGACAUGAGGAUCACCCAUGUAGGACGC [PowerStrip SSNG 1.19] (Eterna round: R96, puzzle: Same State NG 1) | 11.5 nM | 21.8 nM | 26.1 nM | – | – | – | – | – | – |
| AAGAAAUCCGCAGGAUAUCCUAAGCCGGGCUUAGGAGAAGGGUGGCCACAUGAGGAUCACCCAUGUAAAGGCUGAAUCACAGCC [Disois] (Eterna round: R96, puzzle: Same State NG 1) | 662 nM | 268 nM | 491 nM | – | – | – | – | – | – |
| UGACACACGGCAGGAUAUCCUUAGCAAAGCUAAGGAGAAGGGCCUCAUGUCGUGGAAACGUGACAUGAGGAUCACCCAUGUUGC [Omei SS(NG)1 Cv7] (Eterna round: R96, puzzle: Same State NG 1) | 154 nM | 18.1 nM | 85 nM | – | – | – | – | – | – |
| GGAGAGAGAGCACAGGAUAUGCGAGGAGAGACAUGAGGAUCACCCAUGUAAGAGAGAGAGGAGAGGUAGAAGGGUGAGAGAGAGG [Altered State 2-21 - Jieux - Same State 2] (puzzle: Same State 2) | – | – | – | – | – | – | – | – | apparent KD of MS2 coat protein (MS2 coat protein [1]; [3]): 150 nM; apparent KD of MS2 coat protein (MS2 coat protein [1]; [4]): 62.7 nM; apparent KD of MS2 coat protein (MS2 coat protein [1]; [5]): 92.3 nM |
| AGCUAUUAAUCAGGAUAUGGUCACAUGAGGAUCACCCAUGUAUAGAUGAUUGAAUGUGGUCUACACUAGAAGGGAUUGCUAACA [SameState NG2 #58] (Eterna round: R96, puzzle: Same State NG 2) | 167 nM | 96.1 nM | 150 nM | – | – | – | – | – | – |
| GCGGACCUGACAUGAGGAUCACCCAUGUUGCGGAGACGCAAUGAGGAUAUCGAUGGGUUUCCCGUCGAGAAGGCAUAAAUCCGC [JL SSNG3 3.93 mod 3] (Eterna round: R96, puzzle: Same State NG 3) | 15.1 nM | 16 nM | 25.2 nM | – | – | – | – | – | – |
| GGUAGGUUACUACCAAACAUGAGGAUCACCCAUGUAAGUGGGAAGGAUAUGGUACCUAAAAGGUACCAGAAGGUCCAAUUAAUU [Mat - Same State NG 3 - JL Mod - D98] (Eterna round: R96, puzzle: Same State NG 3) | 188 nM | 436 nM | 584 nM | – | – | – | – | – | – |
| UCGAGCGUACUUGCAGACAUGAGGAUCACCCAUGUAAAUGGGAAGGAUAUGGUACCGUUUCGGUACCAGAAGGUCCUAGGUGCU [salish99_SSNG3_r04_306] (Eterna round: R96, puzzle: Same State NG 3) | 250 nM | 327 nM | 1290 nM | – | – | – | – | – | – |
| AAAAUGGCAUGUUACAUGAGGAUCACCCAUGUGCCGUCAACUGAGGAUAUGGUGCUGUAGAAGAAUCAGAAGGUAGUCAUUUAA [AK SSNG3-V2-27] (Eterna round: R96, puzzle: Same State NG 3) | 22.6 nM | 15.8 nM | 27 nM | – | – | – | – | – | – |
| AAGAUACUCUGAAGGAGCGUCAUAAAACAUGAGGAUCACCCAUGUGCGCGGGUGUAAUUAUGACAGGUAGGUCGCAGAGUAUUUA [Arg B SS t2] | – | – | – | 424 nM | 179 nM | 515 nM | 601 nM | 442 nM | – |
| CCCUGGGUGGGAAGGAGCGCAUAGUGAACAUGAGGAUCACCCAUGUGCAGACGUGAGUCAUUGCAGGUAGGUCGCCCACCCAGGG [SS-ArgB22] | – | – | – | 10.2 nM | 18.9 nM | 21.4 nM | 30.2 nM | 20.9 nM | – |
| GAUGAACUAUUUGAUACCAGACUACAUGAGGAUCACCCAUGUGAGUUUAUACUUCUGUCAGUCCCUUGGCAGCAAAUAGUUUAUC [XTheo B #5] | – | – | – | 21.5 nM | – | 27.8 nM | – | 16.4 nM | – |

| Sequence | apparent KD of MS2 coat protein (MS2 coat protein [1]; input ligand: FMN 200 uM) | apparent KD of MS2 coat protein (MS2 coat protein [1]; [6]) | apparent KD of MS2 coat protein (MS2 coat protein [1]; input ligand: none) | apparent KD of MS2 coat protein (MS2 coat protein [2]; input ligand: arginine 13.2 mM) | apparent KD of MS2 coat protein (MS2 coat protein [2]; input ligand: none) | apparent KD of MS2 coat protein (MS2 coat protein [2]; [7]) | apparent KD of MS2 coat protein (MS2 coat protein [2]; [8]) | apparent KD of MS2 coat protein (MS2 coat protein [2]; [9]) | further results |
| --- | --- | --- | --- | --- | --- | --- | --- | --- | --- |
| CGUGAUACUGGUAUACUCUGAAGAUCAAUUCGAGGACCGGUACGGCCGCCACUCGUUAGUAGACAUGAGGAUCACCCAUGUUAGU [theeternabot_exclusion_MS2_Trp_A_48] | – | – | – | 11.8 nM | – | 20.6 nM | 17.7 nM | – | – |
| UUUGGCGGCGAUCUGGGUUUACCAGAUCGGCGAGGACCGGUACGGCCGCCACUCGUGUUUCUUUGACAUGAGGAUCACCCAUGUA [whbob_SS_trypto A_f3] | – | – | – | 34.9 nM | – | 74.6 nM | 102 nM | – | – |
| GGGUGGUAGGCGGCCGCCACUGAUUUUCAUUUAUAGAUGACAUGAGGAUCACCCAUGUUUAUGUGCAGGACCGGGCCUGCUGUGG [aaaT] | – | – | – | 102 nM | 68 nM | 130 nM | 137 nM | 78.2 nM | – |
| GGUGGCGUGACGGAUACCAGCCACCACCGCAAGACCACAUGAGGAUCACCCAUGUUGGGUGGCCCUUGGCAGCUGUCGUGCGGCG [#1 Same State - Theophylline B Attempt #19 (HarryS)] | – | – | – | 15 nM | 213 nM | 331 nM | 475 nM | 110 nM | – |
| AGUAGUUGACAAAAGUCAGCUACAACUGAAGGAGCGGGUGGGUGCCCAGGUAGGUCGCAGGAACAUGAGGAUCACCCAUGUAUAA [ArgAS 3 #BothOrNeither #OpenEnded] | – | – | – | 35.9 nM | 22.7 nM | 40.3 nM | 32.2 nM | 18.5 nM | – |
| UGUAUGGACUGAAGGAGCGCCUCAAAAUAACAUGAGGAUCACCCAUGUGGCGAAAGCCAAGGGCAGGUAGGUCGCAGUCCAUACU [ArgBX 4 #StaticStem #MS2Late] | – | – | – | 27.3 nM | 26.4 nM | 34.2 nM | 32.9 nM | 32 nM | – |
| GGAUAGGACACGGCCGCCACUACCUAGGAUACUAGAAACAUUUCCUCACAUGAGGAUCACCCAUGUAGGACCGGGUGUCCUAUCG | – | – | – | 106 nM | – | 284 nM | 351 nM | – | – |
| AUGCCGGGCCGAAGGAGCGCAAUAGAAUGACAUGAGGAUCACCCAUGUGUGUGAUGUGGGUUGCAGGUAGGUCGCGGCCCGGCAU [#12 Exclusion - Arginine B] | – | – | – | 17.6 nM | 42.1 nM | 80.2 nM | 62.7 nM | 68.3 nM | – |
| ACAUGAGGAUCACCCAUGUUCAUGCGGGAAGGAGCGUGCGGAAGCACAGGUAGGUCGCCCUCAAUAUCUAACGUUACGUUCAUGA [#26 Same State - Arginine A] | – | – | – | 13.7 nM | 14.3 nM | 18.4 nM | 14.4 nM | 15.5 nM | – |
| AGGUACGAAAACGUGGGUGAGUCGUACCAACGAGGACCGGUACGGCCGCCACUCGAAUAAACAUGAGGAUCACCCAUGUAAUAAU [T''-M-T'-T-MS2 - Design 6] | – | – | – | 25 nM | – | 58.3 nM | 66.5 nM | – | – |
| UCGUGAGUUUCGGAUACCAGUGUGGUCGAUACAUGAGGAUCACCCAUGUUAGAGGAGGUACACCCUUGGCAGCCGGCUGUGGCGG [hlhmullin] | – | – | – | 31.4 nM | 23.5 nM | 35.4 nM | 18.1 nM | 25 nM | – |
| CUGUUUGUUUGGGUCUGUCAAAAGAACGAUACCAGCCGCAUUAUGGGCCCUUGGCAGCGUAGGACAUGAGGAUCACCCAUGUACG [theeternabot_exclusion_MS2_Theo_A_16] | – | – | – | 16 nM | – | 22 nM | – | 16.2 nM | – |
| CCUCGAUUUUGAUACCGAUAUGUCUUUGAUACCAGCGCCAUAGUACGCCCUUGGCAGCAAGAAACAUGAGGAUCACCCAUGUUAA [theeternabot_exclusion_MS2_Theo_A_36] | – | – | – | 16.9 nM | – | 26.4 nM | – | 16.7 nM | – |
| ACAUGAGGAUCACCCAUGUAAAUAACGGAAGGAGCGUGCAAAAGCACAGGUAGGUCGCCGAUAUAAAUAUUGGGUAUUAUAUUUU [AstrosExyArgA#3] | – | – | – | 30.4 nM | 30.4 nM | 40.3 nM | 31.7 nM | 29.6 nM | – |
| AUCGUACCUGAUGAUACCAGCAAUUGCUCGUAACAUGAGGAUCACCCAUGUGAUCAGUGAUGCCCUUGGCAGCAUGAUCGGUGCA [Same State - Theophylline B (Freestyle 19)] | – | – | – | 52.8 nM | – | 183 nM | – | 248 nM | – |
